These are literature values, as cited in article PMC11736853.

pKd, pKi: −log10 of the molar value. Where two headings read alike, the source gives them in different places.

For orientation: pKd means −log10 of the Kd, conventionally taken in molar units. In general, pKi refers to the negative decadic logarithm of the Ki, by convention in mol/L.

The target in data set [1] is CK2β triazole cyclised peptide (Homo sapiens) (UniProt P67870). Put plainly: ITC. On the technique in general: In ITC the heat of successive injections is recorded.
The target in data set [2] is AIF peptide 39 (Homo sapiens) (UniProt O95831).
Data set [3] deals with AIF bicyclic peptide 63 (Homo sapiens) (UniProt O95831).
Data set [4] addresses AIF peptide 39 (Homo sapiens) (UniProt O95831). Put plainly: SPR. Background: Surface plasmon resonance follows binding to a sensor surface in real time, without labels.
Data set [5] concerns the target AIF peptide 40 (Homo sapiens) (UniProt O95831). Put plainly: SPR.
The target in data set [6] is Nrf2 peptide 41 (Homo sapiens) (UniProt Q16236).
The target in data set [7] is TRF2 41-residue sequence (Homo sapiens) (UniProt Q15554).
The target of data set [8] is R6IP peptide 64 (Homo sapiens) (UniProt Q6IQ26).
The target of data set [9] is iNOS peptide 24 (Homo sapiens) (UniProt P35228). The experiment in a line: ITC.
For the next data set, the target named is RAP1 (Homo sapiens) (UniProt Q9NYB0).
Data set [10] concerns the target BCL9 peptide 53 347-381 (Homo sapiens) (UniProt O00512). Put plainly: FP.
For data set [11] the target is unchanged. The experiment in a line: competitive FP.
Data set [12] concerns the target BCL9 peptide 54 351-375 (Homo sapiens) (UniProt O00512). Put plainly: competitive FP.

CypA, sequence (P62937 2-165): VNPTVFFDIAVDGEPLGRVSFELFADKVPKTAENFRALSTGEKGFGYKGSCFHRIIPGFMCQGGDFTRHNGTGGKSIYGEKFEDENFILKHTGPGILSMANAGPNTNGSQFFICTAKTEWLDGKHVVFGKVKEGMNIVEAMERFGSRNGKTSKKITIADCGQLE
β-catenin, sequence (P35222 2-781): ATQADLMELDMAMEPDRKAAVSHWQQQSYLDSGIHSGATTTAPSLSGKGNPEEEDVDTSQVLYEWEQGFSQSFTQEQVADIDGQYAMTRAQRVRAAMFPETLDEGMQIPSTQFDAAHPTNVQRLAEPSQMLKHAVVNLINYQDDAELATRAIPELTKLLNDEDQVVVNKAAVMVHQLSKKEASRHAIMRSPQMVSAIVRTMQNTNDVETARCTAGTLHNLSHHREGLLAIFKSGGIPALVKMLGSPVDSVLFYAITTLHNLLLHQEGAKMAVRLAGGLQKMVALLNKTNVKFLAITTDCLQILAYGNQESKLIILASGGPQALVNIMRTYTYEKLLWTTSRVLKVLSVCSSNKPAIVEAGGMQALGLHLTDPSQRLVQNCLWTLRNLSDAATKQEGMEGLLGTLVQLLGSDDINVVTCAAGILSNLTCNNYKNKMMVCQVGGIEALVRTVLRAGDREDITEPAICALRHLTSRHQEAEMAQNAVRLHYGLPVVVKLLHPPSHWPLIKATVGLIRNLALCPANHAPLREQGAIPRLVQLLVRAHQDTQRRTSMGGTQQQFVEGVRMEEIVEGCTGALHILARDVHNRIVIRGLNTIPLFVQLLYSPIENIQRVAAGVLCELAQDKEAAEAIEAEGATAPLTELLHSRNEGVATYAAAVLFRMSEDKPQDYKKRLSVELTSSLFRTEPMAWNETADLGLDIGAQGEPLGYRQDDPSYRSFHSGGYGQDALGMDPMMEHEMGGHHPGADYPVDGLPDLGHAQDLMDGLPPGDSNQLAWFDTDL
BCL9 peptide 53 347-381 (Homo sapiens), sequence (O00512 347-381): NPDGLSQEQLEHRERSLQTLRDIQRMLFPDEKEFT
AIF peptide 39 (Homo sapiens), sequence (O95831 370-394): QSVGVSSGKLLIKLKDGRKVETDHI
RAP1 (Homo sapiens), sequence (Q9NYB0 2-399): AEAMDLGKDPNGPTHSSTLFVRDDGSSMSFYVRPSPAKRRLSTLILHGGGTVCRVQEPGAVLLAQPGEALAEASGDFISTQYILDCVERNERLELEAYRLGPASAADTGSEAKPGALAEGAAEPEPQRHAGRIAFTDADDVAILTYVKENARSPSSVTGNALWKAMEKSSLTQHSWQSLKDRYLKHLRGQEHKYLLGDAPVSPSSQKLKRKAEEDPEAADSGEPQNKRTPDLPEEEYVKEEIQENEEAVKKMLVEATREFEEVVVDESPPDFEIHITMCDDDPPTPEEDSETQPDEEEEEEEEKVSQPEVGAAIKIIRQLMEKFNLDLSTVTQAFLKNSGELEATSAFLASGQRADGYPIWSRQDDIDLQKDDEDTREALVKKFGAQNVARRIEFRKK
RAP1, sequence (Q9NYB0 2-399): as above
CK2α, sequence (P68400 whole entry): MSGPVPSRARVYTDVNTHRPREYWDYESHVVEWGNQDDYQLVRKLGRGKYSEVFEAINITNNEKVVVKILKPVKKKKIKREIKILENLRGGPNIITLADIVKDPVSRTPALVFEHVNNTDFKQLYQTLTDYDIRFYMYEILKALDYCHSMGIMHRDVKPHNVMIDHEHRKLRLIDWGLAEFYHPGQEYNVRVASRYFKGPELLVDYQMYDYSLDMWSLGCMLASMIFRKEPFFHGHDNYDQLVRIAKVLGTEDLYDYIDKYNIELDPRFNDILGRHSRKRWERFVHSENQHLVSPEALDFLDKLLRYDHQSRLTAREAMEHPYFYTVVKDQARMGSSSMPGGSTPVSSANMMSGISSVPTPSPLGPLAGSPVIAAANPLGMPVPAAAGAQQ
Rab6a, sequence (P20340 2-208): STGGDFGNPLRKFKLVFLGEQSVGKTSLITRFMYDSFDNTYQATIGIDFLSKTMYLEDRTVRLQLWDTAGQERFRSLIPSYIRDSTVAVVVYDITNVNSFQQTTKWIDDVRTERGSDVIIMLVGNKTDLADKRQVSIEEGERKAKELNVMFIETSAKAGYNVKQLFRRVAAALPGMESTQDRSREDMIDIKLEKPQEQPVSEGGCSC
Nrf2 peptide 41 (Homo sapiens), sequence (Q16236 whole entry, looked up, tested part not stated): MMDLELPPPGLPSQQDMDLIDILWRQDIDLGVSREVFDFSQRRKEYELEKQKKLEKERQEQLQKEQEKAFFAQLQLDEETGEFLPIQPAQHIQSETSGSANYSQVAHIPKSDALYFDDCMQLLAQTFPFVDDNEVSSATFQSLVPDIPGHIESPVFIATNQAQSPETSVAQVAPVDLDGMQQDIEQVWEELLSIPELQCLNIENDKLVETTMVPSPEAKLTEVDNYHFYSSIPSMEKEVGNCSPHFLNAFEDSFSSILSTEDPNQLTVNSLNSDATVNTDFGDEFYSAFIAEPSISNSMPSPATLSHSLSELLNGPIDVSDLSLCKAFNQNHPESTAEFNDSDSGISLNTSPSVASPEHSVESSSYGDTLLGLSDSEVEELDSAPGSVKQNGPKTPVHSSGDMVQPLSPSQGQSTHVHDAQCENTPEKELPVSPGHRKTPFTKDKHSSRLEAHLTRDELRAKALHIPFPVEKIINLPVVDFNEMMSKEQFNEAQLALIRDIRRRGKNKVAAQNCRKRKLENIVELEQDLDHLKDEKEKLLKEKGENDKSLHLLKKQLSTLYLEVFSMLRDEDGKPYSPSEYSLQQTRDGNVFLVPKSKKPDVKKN
SPSB2, sequence (Q99619 whole entry): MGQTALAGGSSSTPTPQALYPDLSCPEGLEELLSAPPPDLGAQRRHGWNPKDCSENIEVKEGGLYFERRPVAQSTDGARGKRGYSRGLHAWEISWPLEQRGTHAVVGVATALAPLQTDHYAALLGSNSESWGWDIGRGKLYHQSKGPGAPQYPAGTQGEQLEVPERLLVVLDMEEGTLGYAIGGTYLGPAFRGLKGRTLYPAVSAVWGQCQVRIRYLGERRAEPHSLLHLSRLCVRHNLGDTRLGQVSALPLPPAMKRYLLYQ
Keap1, sequence (Q14145 whole entry): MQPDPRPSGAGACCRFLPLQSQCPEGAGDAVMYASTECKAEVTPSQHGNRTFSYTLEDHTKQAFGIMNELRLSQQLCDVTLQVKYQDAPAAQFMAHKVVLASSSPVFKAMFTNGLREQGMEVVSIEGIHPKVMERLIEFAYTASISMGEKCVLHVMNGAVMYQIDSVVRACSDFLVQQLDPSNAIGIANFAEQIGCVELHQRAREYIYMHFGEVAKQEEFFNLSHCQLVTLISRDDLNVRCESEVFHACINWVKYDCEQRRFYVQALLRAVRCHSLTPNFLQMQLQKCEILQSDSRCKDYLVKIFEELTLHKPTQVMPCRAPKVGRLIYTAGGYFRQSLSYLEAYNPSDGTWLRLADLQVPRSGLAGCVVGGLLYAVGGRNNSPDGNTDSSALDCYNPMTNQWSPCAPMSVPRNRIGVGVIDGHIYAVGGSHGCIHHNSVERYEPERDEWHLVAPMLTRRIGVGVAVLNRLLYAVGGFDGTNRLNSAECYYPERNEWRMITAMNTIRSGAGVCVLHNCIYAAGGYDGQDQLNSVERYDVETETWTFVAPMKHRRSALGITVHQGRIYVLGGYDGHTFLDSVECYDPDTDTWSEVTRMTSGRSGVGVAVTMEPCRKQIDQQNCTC
CK2β triazole cyclised peptide (Homo sapiens), sequence (P67870 2-215): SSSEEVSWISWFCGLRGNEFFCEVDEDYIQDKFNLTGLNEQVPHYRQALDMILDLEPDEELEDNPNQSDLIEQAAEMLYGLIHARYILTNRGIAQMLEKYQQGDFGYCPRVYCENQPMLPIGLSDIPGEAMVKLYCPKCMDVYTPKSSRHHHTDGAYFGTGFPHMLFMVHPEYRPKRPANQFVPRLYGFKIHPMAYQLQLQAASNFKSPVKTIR
BCL9 peptide 54 351-375 (Homo sapiens), sequence (O00512 351-375): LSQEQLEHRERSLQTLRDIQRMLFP
AIF peptide 40 (Homo sapiens), sequence (O95831 whole entry, looked up, tested part not stated): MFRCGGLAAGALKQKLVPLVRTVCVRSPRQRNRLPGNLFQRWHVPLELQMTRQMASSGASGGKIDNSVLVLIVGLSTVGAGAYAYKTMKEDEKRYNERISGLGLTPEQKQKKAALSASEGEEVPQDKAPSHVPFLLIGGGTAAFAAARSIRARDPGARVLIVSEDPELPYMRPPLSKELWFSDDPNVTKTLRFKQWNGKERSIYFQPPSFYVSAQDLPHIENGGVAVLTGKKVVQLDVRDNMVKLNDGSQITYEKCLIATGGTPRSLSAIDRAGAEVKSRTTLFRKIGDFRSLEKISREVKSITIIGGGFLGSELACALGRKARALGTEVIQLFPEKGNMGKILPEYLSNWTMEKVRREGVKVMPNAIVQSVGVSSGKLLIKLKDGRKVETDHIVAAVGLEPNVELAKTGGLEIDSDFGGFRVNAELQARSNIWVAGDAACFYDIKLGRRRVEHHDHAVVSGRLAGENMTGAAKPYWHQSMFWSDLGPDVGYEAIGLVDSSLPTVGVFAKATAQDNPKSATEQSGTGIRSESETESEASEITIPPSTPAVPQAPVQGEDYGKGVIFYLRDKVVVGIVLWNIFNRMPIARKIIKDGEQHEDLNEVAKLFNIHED

As to CK2α (from UniProt P68400), the pKd in [1] is 6.34.

In the case of CypA (from UniProt P62937), the pKd was 5.30 in data set [2], 6.07 in [3], 4.92 in data set [4] and 5.62 in data set [5].

As to Keap1 (from UniProt Q14145), in data set [6], the pKd is 7.56.

Turning to RAP1 (from UniProt Q9NYB0), in data set [7], the pKd was 7.78.

For the substance Rab6a (from UniProt P20340), in data set [8], the pKd is 5.11.

SPSB2 (from UniProt Q99619): the pKd in data set [9] was 7.88.

As for “TRF2 41-residue peptide (from UniProt Q15554)”, in the data set with RAP1 (Homo sapiens), the pKd is 7.78.

As to β-catenin (from UniProt P35222), the pKd in data set [10] was 6.21. Also, the pKi in data set [11] was 6.02; in [12], 5.72.
